Reference: the supplement of paper PMC11246515
± gives the standard deviation of the averaged measurements.

Experiment: total protein half-life in vivo (active degradation + dilution); higher = more stable protein
[1] = E. coli NCM3722 delta-clpP delta-lon delta-hslV, growth: N-lim chemostat, doubling time 6 h
[2] = E. coli NCM3722 delta-clpP, growth: N-lim chemostat, doubling time 6 h
[3] = E. coli NCM3722 delta-hslV, growth: N-lim chemostat, doubling time 6 h
[4] = E. coli NCM3722 delta-lon, growth: N-lim chemostat, doubling time 6 h
[5] = E. coli NCM3722 delta-smpB, growth: N-lim chemostat, doubling time 6 h
[6] = wild type E. coli NCM3722, growth: C-lim chemostat, doubling time 3 h
[7] = wild type E. coli NCM3722, growth: C-lim chemostat, doubling time 6 h
[8] = wild type E. coli NCM3722, growth: C-lim chemostat, doubling time 12 h
[9] = wild type E. coli NCM3722, growth: N-lim chemostat, doubling time 6 h
[10] = wild type E. coli NCM3722, growth: N-lim chemostat, doubling time 12 h
[11] = wild type E. coli NCM3722, growth: P-lim chemostat, doubling time 6 h
[12] = wild type E. coli NCM3722, growth: P-lim chemostat, doubling time 12 h

Sequence	total protein half-life in vivo [1] [h]	total protein half-life in vivo [2] [h]	total protein half-life in vivo [3] [h]	total protein half-life in vivo [4] [h]	total protein half-life in vivo [5] [h]	total protein half-life in vivo [6] [h]	total protein half-life in vivo [7] [h]	total protein half-life in vivo [8] [h]	total protein half-life in vivo [9] [h]	total protein half-life in vivo [10] [h]	total protein half-life in vivo [11] [h]	total protein half-life in vivo [12] [h]
MRVENNNVSGQNHDPEQIDLIDLLVQLWRGKMTIIISVIVAIALAIGYLAVAKEKWTSTAIITQPDVGQIAGYNNAMNVIYGQAAPKVSDLQETLIGRFSSAFSALAETLDNQEEREKLTIEPSVKNQQLPLTVSYVGQTAEGAQMKLAQYIQQVDDKVNQELEKDLKDNIALGRKNLQDSLRTQEVVAQEQKDLRIRQIQEALQYANQAQVTKPQIQQTGEDITQDTLFLLGSEALESMIKHEATRPLVFSPNYYQTRQNLLDIESLKVDDLDIHAYRYVMKPMLPIRRDSPKKAITLILAVLLGGMVGAGIVLGRNALRNYNAK	6.28 ± 0.95	6.967 ± 0.025	6.99 ± 0.87	6.083 ± 0.046	6.13 ± 0.13	3.05 ± 0.051	5.61 ± 0.062	11.1 ± 1.2	6.07 ± 0.17	12 ± 1.5	5.97 ± 0.15	12.1 ± 0.5
MRVFKTKLIRLQLTAEELDALTADFISYKRDGVLPDIFGRDALYDDSFTWPLIKFERVAHIHLANENNPFPPQLRQFSRTNDEAHLVYCQGAFDEQAWLLIAILKPEPHKLARDNNQMHKIGKMAEAFRMRF	7.33	–	–	–	–	–	–	–	–	–	> 8	12.4 ± 1
MRVITLAGSPRFPSRSSSLLEYAREKLNGLDVEVYHWNLQNFAPEDLLYARFDSPALKTFTEQLQQADGLIVATPVYKAAYSGALKTLLDLLPERALQGKVVLPLATGGTVAHLLAVDYALKPVLSALKAQEILHGVFADDSQVIDYHHRPQFTPNLQTRLDTALETFWQALHRRDVQVPDLLSLRGNAHA	4.66 ± 0.17	–	–	1.83	–	–	–	–	–	–	–	–
MRVLGIETSCDETGIAIYDDEKGLLANQLYSQVKLHADYGGVVPELASRDHVRKTVPLIQAALKESGLTAKDIDAVAYTAGPGLVGALLVGATVGRSLAFAWDVPAIPVHHMEGHLLAPMLEDNPPEFPFVALLVSGGHTQLISVTGIGQYELLGESIDDAAGEAFDKTAKLLGLDYPGGPLLSKMAAQGTAGRFVFPRPMTDRPGLDFSFSGLKTFAANTIRDNGTDDQTRADIARAFEDAVVDTLMIKCKRALDQTGFKRLVMAGGVSANRTLRAKLAEMMKKRRGEVFYARPEFCTDNGAMIAYAGMVRFKAGATADLGVSVRPRWPLAELPAA	4.38 ± 0.12	3 ± 0.72	3.73 ± 1.1	4.84 ± 1.2	3.17 ± 0.33	2.618 ± 0.021	4.72 ± 0.64	7.77 ± 1.6	3.33 ± 0.5	4.16 ± 0.42	4.07 ± 0.11	8.07 ± 0.76
MRVLLAPMEGVLDSLVRELLTEVNDYDLCITEFVRVVDQLLPVKVFHRICPELQNASRTPSGTLVRVQLLGQFPQWLAENAARAVELGSWGVDLNCGCPSKTVNGSGGGATLLKDPELIYQGAKAMREAVPAHLPVSVKVRLGWDSGEKKFEIADAVQQAGATELVVHGRTKEQGYRAEHIDWQAIGDIRQRLNIPVIANGEIWDWQSAQQCMAISGCDAVMIGRGALNIPNLSRVVKYNEPRMPWPEVVALLQKYTRLEKQGDTGLYHVARIKQWLSYLRKEYDEATELFQHVRVLNNSPDIARAIQAIDIEKL	5.15 ± 0.54	4.72 ± 0.35	4.92 ± 0.12	–	4.76 ± 0.15	2.89 ± 0.34	–	10.6	5.2 ± 0.37	8.91 ± 1.2	5.81 ± 0.9	11.7 ± 1.4
MRVLVVEDNALLRHHLKVQIQDAGHQVDDAEDAKEADYYLNEHIPDIAIVDLGLPDEDGLSLIRRWRSNDVSLPILVLTARESWQDKVEVLSAGADDYVTKPFHIEEVMARMQALMRRNSGLASQVISLPPFQVDLSRRELSINDEVIKLTAFEYTIMETLIRNNGKVVSKDSLMLQLYPDAELRESHTIDVLMGRLRKKIQAQYPQEVITTVRGQGYLFELR	4.69 ± 0.2	4.2 ± 0.46	4.056 ± 0.01	4.7 ± 0.21	4.19 ± 0.29	2.85 ± 0.13	5.04 ± 0.12	8.69 ± 1	4.33 ± 0.29	7.55 ± 0.24	5.134 ± 0.051	8.98 ± 0.26
MRWLPFIAIFLYVYIEISIFIQVAHVLGVLLTLVLVIFTSVIGMSLVRNQGFKNFVLMQQKMAAGENPAAEMIKSVSLIIAGLLLLLPGFFTDFLGLLLLLPPVQKHLTVKLMPHLRFSRMPGGGFSAGTGGGNTFDGEYQRKDDERDRLDHKDDRQD	5.99 ± 0.11	6.83 ± 1.1	6.44 ± 0.84	6.06 ± 0.49	5.53 ± 0.073	2.47 ± 0.28	7.17 ± 0.34	11.7 ± 1.8	6.12 ± 1.3	14.2	5.89 ± 0.25	12.4 ± 0.96
MRWQGRRESDNVEDRRNSSGGPSMGGPGFRLPSGKGGLILLIVVLVAGYYGVDLTGLMTGQPVSQQQSTRSISPNEDEAAKFTSVILATTEDTWGQQFEKMGKTYQQPKLVMYRGMTRTGCGAGQSIMGPFYCPADGTVYIDLSFYDDMKDKLGADGDFAQGYVIAHEVGHHVQKLLGIEPKVRQLQQNATQAEVNRLSVRMELQADCFAGVWGHSMQQQGVLETGDLEEALNAAQAIGDDRLQQQSQGRVVPDSFTHGTSQQRYSWFKRGFDSGDPAQCNTFGKSI	5.3 ± 0.69	6.06 ± 0.32	5.36 ± 0.17	–	4.87 ± 0.34	2.861 ± 0.027	5.19 ± 0.22	7.6 ± 3	5.54 ± 0.5	11.2 ± 2	3.37 ± 0.57	8.39 ± 3.7
MRYIVALTGGIGSGKSTVANAFADLGINVIDADIIARQVVEPGAPALHAIADHFGANMIAADGTLQRRALRERIFANPEEKNWLNALLHPLIQQETQHQIQQATSPYVLWVVPLLVENSLYKKANRVLVVDVSPETQLKRTMQRDDVTREHVEQILAAQATREARLAVADDVIDNNGAPDAIASDVARLHAHYLQLASQFVSQEKP [P0A6I9]	4.61 ± 0.82	4.08 ± 0.2	4.04 ± 0.14	4.32 ± 0.1	4.78 ± 0.96	3.06 ± 0.28	4.83 ± 0.92	9.87 ± 0.29	4.18 ± 0.04	6.95 ± 0.2	5.34 ± 0.12	11.1 ± 0.22
MRYPVDVYTGKIQAYPEGKPSAIAKIQVDGELMLTELGLEGDEQAEKKVHGGPDRALCHYPREHYLYWAREFPEQAELFVAPAFGENLSTDGLTESNVYMGDIFRWGEALIQVSQPRSPCYKLNYHFDISDIAQLMQNTGKVGWLYSVIAPGKVSADAPLELVSRVSDVTVQEAAAIAWHMPFDDDQYHRLLSAAGLSKSWTRTMQKRRLSGKIEDFSRRLWGK	4.688 ± 0.014	4.89 ± 0.61	4.614 ± 0.023	5.77 ± 0.072	4.46 ± 0.23	3.04 ± 0.29	6.38 ± 1.3	9.06 ± 0.23	4.7 ± 0.19	7.96 ± 1.1	5.64 ± 0.12	12 ± 0.28
MRYRIFLLFFFALLPTSLVWAAPAQRAFSDWQVTCNNQNFCVARNTGDHNGLVMTLSRSAGAHTDAVLRIERGGLKSPEASEGEIAPRLLLDGEPLALSGDKWRISPWLLVTDDTATITAFLQMIQEGKAITLRDGDQTISLSGLKAALLFIDAQQKRVGSETAWIKKGDEPPLSVPPAPALKEVAVVNPTPTPLSLEERNDLLDYGNWRMNGLRCSLDPLRREVNVTALTDDKALMMISCEAGAYNTIDLAWIVSRKKPLASRPVRLRLPFNNGQETNELELMNATFDEKSRELVTLAKGRGLSDCGIQARWRFDGQRFRLVRYAAEPTCDNWHGPDAWPTLWITR	4.79 ± 0.75	5.182 ± 0.02	6.05 ± 0.37	5.51 ± 0.2	5.55 ± 0.54	3.44 ± 0.45	5.86 ± 1.1	10.4 ± 2	5.2 ± 0.56	12.9 ± 3.8	4.81 ± 0.49	9.92 ± 0.41
MSAEHVLTMLNEHEVKFVDLRFTDTKGKEQHVTIPAHQVNAEFFEEGKMFDGSSIGGWKGINESDMVLMPDASTAVIDPFFADSTLIIRCDILEPGTLQGYDRDPRSIAKRAEDYLRSTGIADTVLFGPEPEFFLFDDIRFGSSISGSHVAIDDIEGAWNSSTQYEGGNKGHRPAVKGGYFPVPPVDSAQDIRSEMCLVMEQMGLVVEAHHHEVATAGQNEVATRFNTMTKKADEIQIYKYVVHNVAHRFGKTATFMPKPMFGDNGSGMHCHMSLSKNGVNLFAGDKYAGLSEQALYYIGGVIKHAKAINALANPTTNSYKRLVPGYEAPVMLAYSARNRSASIRIPVVSSPKARRIEVRFPDPAANPYLCFAALLMAGLDGIKNKIHPGEAMDKNLYDLPPEEAKEIPQVAGSLEEALNELDLDREFLKAGGVFTDEAIDAYIALRREEDDRVRMTPHPVEFELYYSV [P0A9C5]	5.3 ± 0.14	4.58 ± 0.32	4.63 ± 0.14	5.06 ± 0.33	4.02 ± 0.12	3.39 ± 0.49	6.33 ± 0.86	11.5 ± 0.3	4.25 ± 0.046	7.49 ± 0.92	5.8 ± 0.092	12.1 ± 0.55
MSAFKKSLLVAGVAMILSNNVFADEGHGIVKFKGEVISAPCSIKPGDEDLTVNLGEVADTVLKSDQKSLAEPFTIHLQDCMLSQGGTTYSKAKVTFTTANTMTGQSDLLKNTKETEIGGATGVGVRILDSQSGEVTLGTPVVITFNNTNSYQELNFKARMESPSKDATPGNVYAQADYKIAYE	5.72	5.47	5.25	–	3.96 ± 0.24	1.78	–	–	–	–	–	–
